Consider seven molecules from US20260146073A1 (published 2026).

Changes are numbered by the printed parent chain.

The target of assay [1] is T1, mutated CDKN2A, frameshift (p16INK4a -1 or +2 indels between M54 and W100); p14ARF -2 or +1 indels between G69 … (human).
T1 peptide: AVCPWTWLR
Put plainly: multimer staining.

In assay [2] the target is T2, WT p16INK4a (CDKN2A) peptide on HLA-A*02:01 (human).
T2 peptide: RLPVDLAEEL
Put plainly: cytokine release.

Assay [3] has as its target T3, WT p16INK4a (CDKN2A) peptide on HLA-A*02:01 (human).
T3 peptide: LPVDLAEEL
Put plainly: cytokine release.

Assay [4] has as its target T1, mutated CDKN2A, frameshift (p16INK4a -1 …). The assay is described as follows: cytokine release.
For assay [5], the target named is T4, mutated CDKN2A, frameshift (p16INK4a -1 or +2 indels between M54 and W100); p14ARF -2 or +1 indels between G69 … (human).
T4 peptide: AVCPWTWLR
The assay is described as follows: multimer staining.

B1: 3333 TCR-C (TCR, V domains shown)
Valpha: QKEVEQNSGPLSVPEGAIASLNCTYSDRGSQSFFWYRQYSGKSPELIMSIYSNGDKEDGRFTAQLNKASQYVSLLIRDSQPSDSATYLCAVNRAREAAGNKLTFGGGTRVLVKP
Vbeta: DIYQTPRYLVIGTGKKITLECSQTMGHDKMYWYQQDPGMELHLIHYSYGVNSTEKGDLSSESTVSRIRTEHFPLTLESARPSHTSQYLCASSRPGSEKLFFGSGTQLSVL
For B1, in assay [1], the binding result was “recognises”.

B2: 4286 TCR 10-1 (TCR, V domains shown)
Valpha: QKEVEQNSGPLSVPEGAIASLNCTYSDRGSQSFFWYRQYSGKSPELIMFIYSNGDKEDGRFTAQLNKASQYVSLLIRDSQPSDSATYLCAVKSWVIFGKGTRLHILP
Vbeta: GVTQSPTHLIKTRGQQVTLRCSPISGHKSVSWYQQVLGQGPQFIFQYYEKEERGRGNFPDRFSARQFPNYSSELNVNALLLGDSALYLCASSPSAQSSYGYTFGSGTRLTVV
B2: the binding result in assay [2] and in assay [3] was “no recognition” throughout.

B3: 4286 TCR 10-3 (TCR, V domains shown)
Valpha: QSVSQHNHHVILSEAASLELGCNYSYGGTVNLFWYVQYPGQHLQLLLKYFSGDPLVKGIKGFEAEFIKSKFSFNLRKPSVQWSDTAEYFCAVKDTGFQKLVFGTGTRLLVSP
Vbeta: GAVVSQHPSWVICKSGTSVKIECRSLDFQATTMFWYRQFPKQSLMLMATSNEGSKATYEQGVEKDKFLINHASLTLSTLTVTSAHPEDSSFYICSARGGRNSFEQFFGPGTRLTVL
Turning to B3, the binding result in assay [2] and in assay [3] was “no recognition” in each case.

B4: 4286 TCR 10-4 (TCR, V domains shown)
Valpha: B3 Valpha
Vbeta: B3 Vbeta with R100A, N101R, F103Y, F106Y, L116T
B4: the binding result in assay [2] and in assay [3] was “no recognition” in each case.

B5: 1913 TCR-41BB (TCR, V domains shown)
Valpha: ELKVEQNPLFLSMQEGKNYTIYCNYSTTSDRLYWYRQDPGKSLESLFVLLSNGAVKQEGRLMASLDTKARLSTLHITAAVHDLSATYFCAVDPTGANSKLTFGKGITLSVRP
Vbeta: GVTQTPKHLITATGQRVTLRCSPRSGDLSVYWYQQSLDQGLQFLIQYYNGEERAKGNILERFSAQQFPDLHSELNLSSLELGDSALYFCASSVAISGEETQYFGPGTRLLVL
As to B5, the binding result in assay [4] and in assay [5] was “recognises” in each case.

B6: 4286 TCR 10-2 (TCR, V domains shown)
Valpha: QKEVEQNSGPLSVPEGAIASLNCTYSDRGSQSFFWYRQYSGKSPELIMFIYSNGDKEDGRFTAQLNKASQYVSLLIRDSQPSDSATYLCAVPNSGYSTLTFGKGTMLLVSP
Vbeta: GVTQSPTHLIKTRGQQVTLRCSPISGHKSVSWYQQVLGQGPQFIFQYYEKEERGRGNFPDRFSARQFPNYSSELNVNALLLGDSALYLCASRTGTVTNSYNEQFFGPGTRLTVL
As for B6, the binding result in assay [2] and in assay [3] was “no recognition” in each case.

B7: 3333 TCR-A (TCR, V domains shown)
Valpha: QKEVEQNSGPLSVPEGAIASLNCTYSDRGSQSFFWYRQYSGKSPELIMSIYSNGDKEDGRFTAQLNKASQYVSLLIRDSQPSDSATYLCAVNTASGTYKYIFGTGTRLKVLA
Vbeta: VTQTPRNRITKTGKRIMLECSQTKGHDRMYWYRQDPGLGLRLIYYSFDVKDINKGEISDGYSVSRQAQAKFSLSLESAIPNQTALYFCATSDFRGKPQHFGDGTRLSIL
On to B7, for which the binding result in assay [1] is “recognises”.
